Numbering of substitutions follows the chain as printed. Names and notes keep the numbering of the source.
B1: GpH7-A5/GpH7-B3/GpL16-k0 (antibody, human IgG1, kappa)
heavy 1: not shown
heavy 2: not shown
light: DIVMTQSPLSLPVTPGEPASISCQASESLVHSNRNTYLHWYLQKPGQSPQLLIYKVSNRFSGVPDRFSGSGSGTDFTLKISRVEAEDVGVYYCSQNTHVPPTFGQGTKVEIERTVAAPSVFIFPPSDEQLKSGTASVVCLLNNFYPREAKVQWKVDNALQSGNSQESVTEQDSKDSTYSLSSTLTLSKADYEKHKVYACEVTHQGLSSPVTKSFNRGEC
notes: also called HeCon Ab; control heterodimerized antibody
B2: GpH7-TA7/GpH7-B3/GpL16-k0 (antibody, human IgG1, kappa)
heavy 1: QVQLVQSGAEVKKPGASVTVSCKASGYTFTDYEMHWIRQPPGEGLEWIGAIDPKTGDTAYSESFQDRVTLTADKSTSTAYMELSSLTSEDTAVYYCTRFYSYTYWGQGTLVTVSSASTKGPSVFPLAPSSKSTSGGTAALGCLVKDYFPEPVTVSWNSGALTSGVHTFPAVLQSSGLYSLSSVVTVPSSSLGTQTYICNVNHKPSNTKVDKKVEPKSCDKTHTCPPCPAPEYLWGPSVFLFPPKPKDTLMISRTPEVTCVVVDVSHEDPEVKFNWYVDGVEVHNAKTKPREEQYNATYRVVSVLTVLHQDWLNGKEYKCKVSNKALPAPIEKTISKAKGQPREPQVYTLPPSRKELTKNQVSLTCLVKGFYPSDIAVEWESNGQPENNYKTTPPVLDSDGSFFLYSKLTVDKSRWQQGNVFSCSVMHEALHNRYTQKSLSLSP
heavy 2: not shown
light: B1 light
notes: Heterodimerized anti-glypican-3 IgG1 variant
B3: GpH7-TA7/GpH7-TA45/GpL16-k0 (antibody, human IgG1, kappa)
heavy 1: B2 heavy 1
heavy 2: B2 heavy 1 with K354D, R433H, K437E
light: B1 light
notes: the chains differ only in D356K/H435R against K439E
B4: GpH7-A5/GpH7-TA45/GpL16-k0 (antibody, human IgG1, kappa)
heavy 1: not shown
heavy 2: B2 heavy 1 with K354D, R433H, K437E
light: B1 light
notes: as for B2
B5: GpH7-TA8/GpH7-B3/GpL16-k0 (antibody, human IgG1, kappa)
heavy 1: B2 heavy 1 with P327R
heavy 2: not shown
light: B1 light
notes: as for B2
B6: GpH7-TA7/GpH7-B12/GpL16-k0 (antibody, human IgG1, kappa)
heavy 1: B2 heavy 1
heavy 2: not shown
light: B1 light
notes: as for B2

These binders were tested against T1, FcγRIIIa extracellular domain with C-terminal His tag (human, UniProt P08637 17-208) (assay: SPR (Biacore), ratio of KD values for FcγRIIIa).
T1 construct: extracellular domain; also called FcgRIIIa; CD16A
Text: GpH7-A57 (SEQ ID NO: 40) resulting from the introduction of all of S239D, A330L, and I332E into GpH7-A5; GpH7-B78 (SEQ ID NO: 41) resulting from the introduction of all of S239D, A330L, and I332E into GpH7-B3; GpH7-TA7 (SEQ ID NO: 31) resulting from the introduction of all of L234Y, G236W, and S298A into GpH7-A5; and GpH7-TA45 (SEQ ID NO: 32) resulting from the introduction of all of L234Y, G236W, and S298A into GpH7-B3. […] The prepared antibodies were compared for the FcγRIIIa-binding activity using, as an indicator, KD for FcγRIIIa that was determined according to the method described in Reference Example 2.
(§1) Analysis of interaction between objective antibody and the FcγR was carried out using Biacore T100 (GE Healthcare). HBS-EP+ (GE Healthcare) was used as the running buffer, and the measurement temperature was set to 25° C. Chips produced by immobilizing the antigen peptide by the amine coupling method to a Series S Sencor Chip CM5 (GE Healthcare), or alternatively, chips produced by allowing preliminarily biotinylated antigen peptides to interact with and immobilize onto a Series S Sensor Chip SA (certified) (GE Healthcare) were used. Antibodies of interest were captured onto an antigen peptide-immobilized chip, and allowed to interact to each FcγR diluted with running buffer. To regenerate and repeatedly use the chip, the antibodies captured on the chip were washed off by reacting 10 mM glycine-HCl, pH 1.5.

T1 sequence (P08637 17-208): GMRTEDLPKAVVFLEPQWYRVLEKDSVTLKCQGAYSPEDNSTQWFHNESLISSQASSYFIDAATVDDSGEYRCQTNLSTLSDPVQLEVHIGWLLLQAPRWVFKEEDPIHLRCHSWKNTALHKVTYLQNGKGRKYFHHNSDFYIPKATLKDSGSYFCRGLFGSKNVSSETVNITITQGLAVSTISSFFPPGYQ

| KD ratio 1 (KD of GpH7-G1d/GpL16-k0 divided by KD of the antibody) [fold] | KD ratio 2 (KD of GpH7-A5/GpH7-B3/GpL16-k0 divided by KD of the antibody) [fold] | Binder |
| --- | --- | --- |
| 0.75 | 1 | B1 |
| 3.8 | 5.1 | B2 |
| 0.37 | 0.49 | B3 |

What follows are binders tested against T1, FcγRIIIa extracellular domain with … (assay: SPR (Biacore), antibody captured on antigen peptide chip, FcγR as analyte).
Experimental: Specifically, GpH7-TA7 and GpH7-TA45 (SEQ ID NO: 32) resulting from the introduction of L234Y, G236W, and S298A into GpH7-A5 and GpH7-B3, respectively, were prepared according to the method described in Reference Example 1. […] These antibodies were compared for the FcγRIIIa binding according to the method described in Reference Example 2 (Table 10).
as §1

| FcγR BINDING ACTIVITY (relative FcγRIIIa binding) | Binder |
| --- | --- |
| 100 relative, GpH7-A5/GpH7-B3/GpL16-k0 = 100 | B1 |
| 210 relative, GpH7-A5/GpH7-B3/GpL16-k0 = 100 | B2 |
| 48 relative, GpH7-A5/GpH7-B3/GpL16-k0 = 100 | B3 |
| 225 relative, GpH7-A5/GpH7-B3/GpL16-k0 = 100 | B4 |

Biological target: T1, FcγRIIIa extracellular domain with …
Test: as above
Remark: another data set of the same source
Experimental: GpH7-TA8 (SEQ ID NO: 33) and GpH7-B12 (SEQ ID NO: 12) resulting from the introduction of P329R into GpH7-TA7 and GpH7-B3, respectively, were prepared according to the method described in Reference Example 1.
as §1

| FcγRIIIa BINDING ACTIVITY (relative) | Binder |
| --- | --- |
| 100 relative, GpH7-A5/GpH7-B3/GpL16-k0 = 100 | B1 |
| 150 relative, GpH7-A5/GpH7-B3/GpL16-k0 = 100 | B5 |
| 210 relative, GpH7-A5/GpH7-B3/GpL16-k0 = 100 | B2 |
| 11 relative, GpH7-A5/GpH7-B3/GpL16-k0 = 100 | B6 |

The binders below were run against T1, FcγRIIIa extracellular domain with … (assay: SPR (Biacore), antibody captured, FcγRIIIa as analyte, 1:1 Langmuir kinetic fit).
Experimental: The prepared antibodies were compared for the FcγRIIIa-binding activity using, as an indicator, KD for FcγRIIIa that was determined according to the method described in Reference Example 2.
as §1
The FcγR-binding activity of each antibody was assessed primarily using as an indicator the FcγR-binding activity and dissociation constant for FcγR.

| Kd [nM] | Binder |
| --- | --- |
| 1600 | B1 |
| 320 | B2 |
| 3300 | B3 |

Reference: patent publication US20180155451A1 (published 2018)
